Experimental data reported in the supplement of paper PMC11208486.

How the values were obtained:
[1] = melting temperature (ThermoFMN); higher = more thermostable
Method: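 Purified His-tagged ene reductases (1 mg/ml) in 50 mM sodium phosphate pH 7.4 with 0-30% (v/v) organic co-solvent. Melting temperature was measured by the ThermoFMN assay (FMN fluorescence, 20-90 °C at 1 °C/min, inflection point, triplicate). Specific initial activity was measured with 10 mM cyclohex-2-enone and 0.2 mM NAD(P)H (NADH for LacER) as A340 depletion, at room temperature (DMSO, 2-propanol, n-propanol) or 25 °C (EtOH, MeOH), in triplicate. The TsOYE Tm is above the 90 °C measurement range.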

[2] = specific initial activity, cyclohex-2-enone reduction (U mg-1); higher = more active; details: co-solvent: ethanol
Method: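 Specific initial activity of purified ene reductases with 10 mM cyclohex-2-enone and 0.2 mM NAD(P)H in 50 mM sodium phosphate pH 7.4 with 0-45% (v/v) ethanol or methanol, at set reaction temperatures of 25-45 °C. NAD(P)H depletion was followed at 340 nm for 480 s, in triplicate.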

MNPKYKPLFEPFTFKSGVTINNRIAVAPMTHYASNEDGTISEAELDYIIPRSKEMGMVITACANVTPDGKAFPGQPAIHDDSNIPGLKKLAQAIQAQGAKAVVQIHHGGIECPSELVPQQDVVGPSDVFDNGKQIARALTEEEVENIVKAFGEATRRAIEAGFDGVEIHGANGYLIQQFYSPKTNQRTDRWGGSDEKRLAFPLAIVDEVKKAASEHAKGAFLVGYRLSPEEPETPGLTMTETYTLVDALGDKELDYLHISLMDVNSKARRGADPTRTRMDLLNERVGNKVPLIAVGSIHSADDALAVIENGIPLVAMGREILVDPNWTVKVKEGREKQIETVIKGTDKEKYHLPEPLWQAIVNTQGWVPYKD
melting temperature [°C], [1]
Details	co-solvent concentration (% v/v): 0	co-solvent concentration (% v/v): 5	co-solvent concentration (% v/v): 10	co-solvent concentration (% v/v): 15	co-solvent concentration (% v/v): 20	co-solvent concentration (% v/v): 25	co-solvent concentration (% v/v): 30
co-solvent: 2-propanol	54	46	39.3	39.3	33.7	32.7	33.7
co-solvent: dimethyl sulfoxide	54	51.7	51	50	50	49.7	49.7
co-solvent: ethanol	54	51	45.3	42	38.7	38.3	36.3
co-solvent: methanol	54	52.3	49.7	43.7	44.3	42.3	40
co-solvent: n-propanol	54	43.7	33	31.3	30.3	29.3	30.3

[2]
Details	specific initial activity
co-solvent concentration (% v/v): 0, reaction temperature 25 °C	0.8
co-solvent concentration (% v/v): 0, reaction temperature 30 °C	0.56
co-solvent concentration (% v/v): 0, reaction temperature 35 °C	0.24
co-solvent concentration (% v/v): 0, reaction temperature 40 °C	0.15
co-solvent concentration (% v/v): 5, reaction temperature 25 °C	0.77
co-solvent concentration (% v/v): 5, reaction temperature 30 °C	0.66
co-solvent concentration (% v/v): 5, reaction temperature 35 °C	0.27
co-solvent concentration (% v/v): 5, reaction temperature 40 °C	0.05
co-solvent concentration (% v/v): 10, reaction temperature 25 °C	0.95
co-solvent concentration (% v/v): 10, reaction temperature 30 °C	0.67
co-solvent concentration (% v/v): 10, reaction temperature 35 °C	0.28
co-solvent concentration (% v/v): 10, reaction temperature 40 °C	0.04
co-solvent concentration (% v/v): 15, reaction temperature 25 °C	0.96
co-solvent concentration (% v/v): 15, reaction temperature 30 °C	0.85
co-solvent concentration (% v/v): 15, reaction temperature 35 °C	0.21
co-solvent concentration (% v/v): 15, reaction temperature 40 °C	0.03
co-solvent concentration (% v/v): 20, reaction temperature 25 °C	0.99
co-solvent concentration (% v/v): 20, reaction temperature 30 °C	0.75
co-solvent concentration (% v/v): 20, reaction temperature 35 °C	0.17
co-solvent concentration (% v/v): 20, reaction temperature 40 °C	0.03
co-solvent concentration (% v/v): 25, reaction temperature 25 °C	0.88
co-solvent concentration (% v/v): 25, reaction temperature 30 °C	0.63
